The values below are quoted from earlier work in article PMC10092198.

One may read the pKd as the Kd on a negative log10 scale, so that one unit is a factor of ten.

The target of the series is C3b (mC3b) C3b (Mus musculus) (UniProt P01027).

pKd: −log10 of the molar value.

UniProt P01027, sequence (P01027 566-669): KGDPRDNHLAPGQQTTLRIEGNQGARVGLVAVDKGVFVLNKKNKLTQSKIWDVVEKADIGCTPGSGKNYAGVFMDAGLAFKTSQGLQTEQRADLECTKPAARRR

On to Factor H (mFH) (from UniProt P06909), for which the pKd was 6.00.
